# Data from patent publication US20100015126A1, “Methods of Binding of Cross-Beta Structures By Chaperones” (priority 2006, published 2010).
# Columns and labels:
# [1] = target: Hypothetical protein/Heat shock 70 kDa protein 5 (glucose-regulated protein, 78 kDa = GRP78 = BiP = HSPA5), as identified in eluates (human) (UniProt P11021); experiment: BiP-Sepharose pull-down, RA synovial fluid sample 4B, 1 M NaCl eluate, MS; BiP may stem from the column
# [2] = target: Fc fragment of IgG binding protein (IgGFc-binding protein precursor) (human) (UniProt Q9Y6R7); experiment: BiP-Sepharose pull-down, AL amyloidosis patient I plasma (B2), MS of urea eluate; may be indirect
# [3] = target: Isoform Long of Antigen KI-67/Antigen KI-67 (human) (UniProt P46013); experiment: as above
# [4] = target: IGLC2 protein (immunoglobulin lambda C2)/Immunoglobulin lambda (human) (UniProt P0DOY2); experiment: as above
# [5] = target: Immunoglobulin lambda variable 3-25/V2-17 protein (Fragment) (human) (UniProt P01717); experiment: as above
# [6] = target: 25 kDa protein/immunoglobulin lambda chain/rheumatoid factor G9 light chain (lambda V3)/IGLC1 protein (human) (UniProt P0CG04); experiment: as above
# [7] = target: Apolipoprotein E precursor/Apolipoprotein E/Apolipoprotein E3 (Fragment) (human) (UniProt P02649); experiment: as above
# [8] = target: Immunoglobulin heavy constant gamma 3 (G3m marker)/Ig gamma-3 chain C region (human) (UniProt P01860); experiment: as above
# [9] = target: Hypothetical protein/Heat shock 70 kDa protein 5 (glucose-regulated protein, 78 kDa = GRP78 = BiP = HSPA5), as identified in eluates (human) (UniProt P11021); experiment: BiP-Sepharose pull-down, RA synovial fluid sample 6B, 1 M NaCl eluate, MS; BiP may stem from the column
# [10] = target: IGLC1 protein (immunoglobulin lambda C1)/immunoglobulin lambda chain/immunoglobulin C1 segment protein (fragment) (human) (UniProt P0CG04); experiment: BiP-Sepharose pull-down, RA patient III serum (B4), MS of urea eluate; may be indirect
# [11] = target: Phosphatase and actin regulator 4 isoform 1/Hypothetical protein DKFZp686L07205 (human) (UniProt Q8IZ21); experiment: as above
# [12] = target: Vitronectin precursor (Serum-spreading factor/S-protein) (human) (UniProt P04004); experiment: as above
# [13] = target: GCN1 general control of amino-acid synthesis 1-like 1 (yeast)/GCN1-like protein 1 (HsGCN1) (human) (UniProt Q92616); experiment: as above
# [14] = target: Ig lambda chain V-III region SH (human) (UniProt P01714); experiment: as above
# [15] = target: Immunoglobulin lambda variable 3-25/V2-17 protein (Fragment) (human) (UniProt P01717); experiment: as above
# [16] = target: Immunoglobulin J chain, Immunoglobulin J polypeptide (human) (UniProt P01591); experiment: as above
# [17] = target: IGLC1 protein (immunoglobulin lambda C1)/immunoglobulin lambda chain/immunoglobulin C1 segment protein (fragment) (human) (UniProt P0CG04); experiment: BiP-Sepharose pull-down, RA patient IV synovial fluid (B6), MS of urea eluate; may be indirect
# [18] = target: Immunoglobulin heavy constant mu (IPI00479708) (human) (UniProt P01871); experiment: as above
# [19] = target: Ig heavy chain V-III region CAM (human) (UniProt P01768); experiment: as above
# [20] = target: FLJ00385 protein (Fragment), immunoglobulin heavy constant mu (human) (UniProt P01871); experiment: BiP-Sepharose pull-down, RA synovial fluid sample 2B, 1 M NaCl eluate, MS; may be indirect
# [21] = target: IGHG4 protein, immunoglobulin heavy constant gamma 4 (human) [IgG part: P01861]; experiment: as above
# [22] = target: fibronectin 1 isoform 4 preproprotein (human) (UniProt P02751); experiment: as above
# [23] = target: Clusterin precursor (human) (UniProt P10909); experiment: as above
# [24] = target: Hypothetical protein DKFZp686I04196 (Fragment)/Immunoglobulin heavy constant gamma 2 (G2m marker)/Ig gamma-2 chain C region (human) [IgG part: P01859]; experiment: as above
# [25] = target: Heat shock 70 kDa protein 1L (human) (UniProt P34931); experiment: as above
# [26] = target: IGHM protein, coagulation factor VII (serum prothrombin conversion accelerator) (human) (UniProt P08709); experiment: as above
# [27] = target: Neutrophil defensin 1 precursor (human) (UniProt P59665); experiment: as above
# [28] = target: Histidine-rich glycoprotein precursor (human) (UniProt P04196); experiment: as above
# Sequence of Immunoglobulin lambda variable 3-25/V2-17 protein (Fragment) (human) (P01717 20-112 limits assumed): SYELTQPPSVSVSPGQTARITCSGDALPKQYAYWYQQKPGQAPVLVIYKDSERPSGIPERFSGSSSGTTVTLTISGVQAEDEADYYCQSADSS
# Sequence of Hypothetical protein/Heat shock 70 kDa protein 5 (glucose-regulated protein, 78 kDa = GRP78 = BiP = HSPA5), as identified in eluates (human) (P11021 19-654 limits assumed): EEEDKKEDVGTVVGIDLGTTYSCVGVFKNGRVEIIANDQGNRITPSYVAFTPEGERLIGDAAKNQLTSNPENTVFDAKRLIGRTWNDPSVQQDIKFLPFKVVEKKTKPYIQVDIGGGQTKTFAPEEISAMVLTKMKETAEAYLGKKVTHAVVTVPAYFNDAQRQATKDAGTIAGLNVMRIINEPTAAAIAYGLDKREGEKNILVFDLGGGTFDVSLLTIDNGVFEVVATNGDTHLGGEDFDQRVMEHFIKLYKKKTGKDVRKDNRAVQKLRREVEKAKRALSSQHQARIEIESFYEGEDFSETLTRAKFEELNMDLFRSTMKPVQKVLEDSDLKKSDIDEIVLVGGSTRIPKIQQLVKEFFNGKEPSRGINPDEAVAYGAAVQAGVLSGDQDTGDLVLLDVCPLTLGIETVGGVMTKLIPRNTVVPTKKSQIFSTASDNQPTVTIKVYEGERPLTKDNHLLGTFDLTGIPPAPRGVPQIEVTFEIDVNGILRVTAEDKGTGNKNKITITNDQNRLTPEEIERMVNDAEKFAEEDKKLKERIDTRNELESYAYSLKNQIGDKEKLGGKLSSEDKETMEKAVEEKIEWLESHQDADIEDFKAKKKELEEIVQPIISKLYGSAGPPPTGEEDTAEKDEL
# Sequence of IGLC1 protein (immunoglobulin lambda C1)/immunoglobulin lambda chain/immunoglobulin C1 segment protein (fragment) (human) (P0CG04 whole entry, the tested form may be a part, canonical isoform): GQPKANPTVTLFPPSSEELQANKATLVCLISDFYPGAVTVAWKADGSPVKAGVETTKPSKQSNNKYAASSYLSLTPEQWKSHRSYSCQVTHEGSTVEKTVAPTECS
# Sequence of Apolipoprotein E precursor/Apolipoprotein E/Apolipoprotein E3 (Fragment) (human) (P02649 19-317 limits assumed): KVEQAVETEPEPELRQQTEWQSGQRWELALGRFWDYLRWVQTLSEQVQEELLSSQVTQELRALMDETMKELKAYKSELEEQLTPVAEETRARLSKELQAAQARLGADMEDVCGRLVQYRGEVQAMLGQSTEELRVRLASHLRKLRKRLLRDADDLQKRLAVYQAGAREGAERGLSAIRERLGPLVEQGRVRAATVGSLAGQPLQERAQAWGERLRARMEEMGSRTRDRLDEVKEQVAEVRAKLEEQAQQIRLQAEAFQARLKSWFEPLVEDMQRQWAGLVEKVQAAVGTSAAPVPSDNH
# Sequence of Heat shock 70 kDa protein 1L (human) (P34931 whole entry): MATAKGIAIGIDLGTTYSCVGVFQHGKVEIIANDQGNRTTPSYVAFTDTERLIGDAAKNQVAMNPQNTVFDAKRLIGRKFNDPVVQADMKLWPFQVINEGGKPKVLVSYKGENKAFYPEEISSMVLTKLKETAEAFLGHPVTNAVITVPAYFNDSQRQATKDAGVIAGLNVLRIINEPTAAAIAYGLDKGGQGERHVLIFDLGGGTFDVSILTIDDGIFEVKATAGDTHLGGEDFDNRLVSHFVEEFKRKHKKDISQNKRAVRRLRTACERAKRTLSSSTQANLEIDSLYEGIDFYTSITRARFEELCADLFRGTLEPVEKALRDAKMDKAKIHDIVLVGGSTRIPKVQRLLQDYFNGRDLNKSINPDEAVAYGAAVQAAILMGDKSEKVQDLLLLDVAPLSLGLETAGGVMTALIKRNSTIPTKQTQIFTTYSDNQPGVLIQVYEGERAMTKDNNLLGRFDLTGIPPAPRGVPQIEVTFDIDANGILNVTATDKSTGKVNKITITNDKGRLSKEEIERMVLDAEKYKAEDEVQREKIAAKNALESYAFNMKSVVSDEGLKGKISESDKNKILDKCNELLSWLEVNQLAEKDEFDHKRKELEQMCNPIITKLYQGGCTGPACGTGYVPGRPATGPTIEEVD
# Sequence of fibronectin 1 isoform 4 preproprotein (human) (P02751 other isoform, or with tags, fused parts or gaps limits assumed): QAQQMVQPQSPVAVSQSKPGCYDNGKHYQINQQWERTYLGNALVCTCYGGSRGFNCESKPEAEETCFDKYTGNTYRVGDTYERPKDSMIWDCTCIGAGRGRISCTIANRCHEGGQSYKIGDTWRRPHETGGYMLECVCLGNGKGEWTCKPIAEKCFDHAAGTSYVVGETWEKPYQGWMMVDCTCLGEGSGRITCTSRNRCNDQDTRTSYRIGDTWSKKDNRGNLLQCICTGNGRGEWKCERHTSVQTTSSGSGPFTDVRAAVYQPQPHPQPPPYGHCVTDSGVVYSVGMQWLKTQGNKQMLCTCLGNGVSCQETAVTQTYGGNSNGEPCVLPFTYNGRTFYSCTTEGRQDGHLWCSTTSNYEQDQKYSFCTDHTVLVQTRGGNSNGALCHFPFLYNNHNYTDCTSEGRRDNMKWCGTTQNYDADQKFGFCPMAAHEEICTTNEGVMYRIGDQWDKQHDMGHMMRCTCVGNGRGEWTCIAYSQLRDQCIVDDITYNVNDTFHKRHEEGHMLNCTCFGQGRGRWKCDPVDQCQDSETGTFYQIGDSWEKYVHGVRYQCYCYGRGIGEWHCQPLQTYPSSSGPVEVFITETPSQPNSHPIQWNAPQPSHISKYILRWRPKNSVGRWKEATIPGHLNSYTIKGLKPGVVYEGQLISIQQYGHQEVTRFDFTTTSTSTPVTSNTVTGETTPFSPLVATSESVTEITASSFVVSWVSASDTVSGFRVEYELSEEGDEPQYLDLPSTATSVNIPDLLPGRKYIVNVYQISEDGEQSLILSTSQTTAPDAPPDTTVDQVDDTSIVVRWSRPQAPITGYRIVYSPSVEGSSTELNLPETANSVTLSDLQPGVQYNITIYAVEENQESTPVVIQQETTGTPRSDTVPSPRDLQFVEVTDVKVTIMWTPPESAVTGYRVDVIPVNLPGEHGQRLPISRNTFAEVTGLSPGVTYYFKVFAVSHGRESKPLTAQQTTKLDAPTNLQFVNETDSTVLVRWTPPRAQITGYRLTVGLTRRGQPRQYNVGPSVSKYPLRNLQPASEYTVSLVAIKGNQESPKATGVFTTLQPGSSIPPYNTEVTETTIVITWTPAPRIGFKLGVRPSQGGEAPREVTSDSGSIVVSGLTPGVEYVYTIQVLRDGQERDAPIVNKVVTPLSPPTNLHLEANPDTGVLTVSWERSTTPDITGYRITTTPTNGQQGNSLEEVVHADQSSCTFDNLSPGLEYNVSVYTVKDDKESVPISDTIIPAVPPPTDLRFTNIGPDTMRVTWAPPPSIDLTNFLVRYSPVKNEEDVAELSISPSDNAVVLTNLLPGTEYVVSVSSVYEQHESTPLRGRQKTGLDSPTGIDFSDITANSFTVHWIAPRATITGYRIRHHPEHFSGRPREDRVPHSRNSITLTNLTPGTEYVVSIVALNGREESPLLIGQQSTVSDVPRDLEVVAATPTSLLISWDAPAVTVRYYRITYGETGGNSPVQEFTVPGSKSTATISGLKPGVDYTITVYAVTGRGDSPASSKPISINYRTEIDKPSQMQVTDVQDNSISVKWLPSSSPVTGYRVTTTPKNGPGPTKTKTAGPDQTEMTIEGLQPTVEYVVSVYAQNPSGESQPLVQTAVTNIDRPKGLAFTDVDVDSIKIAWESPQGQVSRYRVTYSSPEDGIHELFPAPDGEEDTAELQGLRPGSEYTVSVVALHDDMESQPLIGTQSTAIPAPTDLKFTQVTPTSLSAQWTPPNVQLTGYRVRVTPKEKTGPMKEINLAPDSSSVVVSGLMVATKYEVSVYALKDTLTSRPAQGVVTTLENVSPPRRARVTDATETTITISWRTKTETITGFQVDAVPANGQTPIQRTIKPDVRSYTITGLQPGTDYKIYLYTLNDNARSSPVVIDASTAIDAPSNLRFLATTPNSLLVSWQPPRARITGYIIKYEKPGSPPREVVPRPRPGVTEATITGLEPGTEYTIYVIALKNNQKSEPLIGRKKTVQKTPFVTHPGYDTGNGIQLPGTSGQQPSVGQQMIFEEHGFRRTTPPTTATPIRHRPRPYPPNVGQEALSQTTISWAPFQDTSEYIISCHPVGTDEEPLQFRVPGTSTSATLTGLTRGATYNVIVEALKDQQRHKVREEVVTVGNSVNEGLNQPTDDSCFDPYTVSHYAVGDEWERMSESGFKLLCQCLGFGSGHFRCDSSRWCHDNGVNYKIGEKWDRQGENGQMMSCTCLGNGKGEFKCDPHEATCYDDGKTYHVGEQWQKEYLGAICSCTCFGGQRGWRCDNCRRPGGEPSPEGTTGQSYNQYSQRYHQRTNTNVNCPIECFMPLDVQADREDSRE
# Sequence of Ig lambda chain V-III region SH (human) (P01714 21-112 limits assumed): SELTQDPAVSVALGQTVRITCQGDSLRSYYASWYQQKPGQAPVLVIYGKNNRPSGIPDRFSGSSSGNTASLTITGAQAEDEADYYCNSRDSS
# Sequence of IGHG4 protein, immunoglobulin heavy constant gamma 4 (human) [IgG part: P01861] (P01861 other isoform, or with tags, fused parts or gaps limits assumed): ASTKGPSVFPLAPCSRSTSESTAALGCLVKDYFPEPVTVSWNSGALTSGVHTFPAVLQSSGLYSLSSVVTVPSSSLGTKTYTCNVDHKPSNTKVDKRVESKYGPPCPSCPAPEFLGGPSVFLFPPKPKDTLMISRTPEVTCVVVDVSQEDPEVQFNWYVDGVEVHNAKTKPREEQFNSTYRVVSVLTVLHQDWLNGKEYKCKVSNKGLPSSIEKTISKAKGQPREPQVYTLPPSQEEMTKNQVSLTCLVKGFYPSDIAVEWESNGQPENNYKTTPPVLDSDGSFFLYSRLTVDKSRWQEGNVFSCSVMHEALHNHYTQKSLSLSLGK
# Sequence of Vitronectin precursor (Serum-spreading factor/S-protein) (human) (P04004 20-478 limits assumed): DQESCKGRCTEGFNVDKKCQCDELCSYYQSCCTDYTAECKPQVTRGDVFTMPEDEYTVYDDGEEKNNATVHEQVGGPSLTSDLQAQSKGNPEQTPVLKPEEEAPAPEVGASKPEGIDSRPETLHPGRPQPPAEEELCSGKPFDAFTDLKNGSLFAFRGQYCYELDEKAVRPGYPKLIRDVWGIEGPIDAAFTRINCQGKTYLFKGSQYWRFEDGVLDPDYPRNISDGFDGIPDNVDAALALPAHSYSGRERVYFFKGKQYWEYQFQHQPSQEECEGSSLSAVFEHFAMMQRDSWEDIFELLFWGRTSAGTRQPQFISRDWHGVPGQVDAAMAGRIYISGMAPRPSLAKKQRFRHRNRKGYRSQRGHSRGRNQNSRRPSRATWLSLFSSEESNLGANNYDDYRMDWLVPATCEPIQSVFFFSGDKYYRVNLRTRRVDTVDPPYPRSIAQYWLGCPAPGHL
# Sequence of Neutrophil defensin 1 precursor (human) (P59665 65-94 limits assumed): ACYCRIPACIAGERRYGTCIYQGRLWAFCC
substance,measurement,setting,value
"recombinant human BiP with C-terminal linker, FLAG-tag and His-tag (BiP-FLAG-His) (from UniProt P11021 19-654)",# of unique peptides,[1],10 peptides
same,# of peptides,[2],4 peptides
same,# of peptides,[3],1 peptides
same,# of peptides,[4],1 peptides
same,# of peptides,[5],8 peptides
same,# of peptides,[6],1 peptides
same,# of peptides,[7],6 peptides
same,# of peptides,[8],2 peptides
same,# of unique peptides,[9],17 peptides
same,# of peptides,[10],2 peptides
same,# of peptides,[11],2 peptides
same,# of peptides,[12],4 peptides
same,# of peptides,[13],2 peptides
same,# of peptides,[14],2 peptides
same,# of peptides,[15],10 peptides
same,# of peptides,[16],5 peptides
same,# of peptides,[17],1 peptides
same,# of peptides,[18],1 peptides
same,# of peptides,[19],2 peptides
same,# of unique peptides,[20],1 peptides
same,# of unique peptides,[21],1 peptides
same,# of unique peptides,[22],2 peptides
same,# of unique peptides,[23],1 peptides
same,# of unique peptides,[24],1 peptides
same,# of unique peptides,[25],1 peptides
same,# of unique peptides,[26],1 peptides
same,# of unique peptides,[27],1 peptides
same,# of unique peptides,[28],1 peptides
